# Laboratory results published in patent US20050113286A1, “Methods for treating congestive heart failure” (priority 2002, published 2005).
# Entries after “also recorded” stand apart in the source; their conditions may differ.
# Assays:
# [1] = tested on: endothelin-1; assay: FUSION I: serum endothelin-1; format: in vivo, human
# Excerpt: Surrogate measures with mechanistic implications included measures of serum aldosterone, serum endothelin-1, and serial measurements of ventricular function using ejection fractions derived from echocardiography. […] Left ventricular ejection fractions were serially measured and read at a core lab (Midwest Heart Foundation Echocardiographic Core Laboratory, Lombard, Ill.).
# [2] = tested on: patients with chronic decompensated HF; assay: FUSION I: use of IV inotropic agents during study visits; format: in vivo, human
# Excerpt: Patients in all treatment groups were allowed to receive any long-term cardiac or noncardiac medications, including IV diuretics, according to investigator discretion. At each visit, the investigator ensured that optimal medical treatment regimens were established. Patients who were randomized to usual care only were allowed to receive positive inotropic agents (milrinone, dobutamine, or dopamine) only if the investigator believed that inotropic support was required to alleviate symptomatic HF and yield hemodynamic stability. Inotropic agents were not permitted in the nesiritide groups unless they were urgently required to prevent hospitalization. During hospitalization, there was no restriction on the use of inotropic agents or nesiritide, regardless of treatment group.
# [3] = tested on: aldosterone; assay: FUSION I: serum aldosterone; format: in vivo, human
# Excerpt: Surrogate measures with mechanistic implications included measures of serum aldosterone, serum endothelin-1, and serial measurements of ventricular function using ejection fractions derived from echocardiography. Pre-infusion aldosterone and endothelin-1 concentrations were collected and analyzed at a core lab (The Mayo Clinic, Rochester, Minn.) at weeks 1, 4, 8, and 12; post-infusion concentrations were collected at weeks 1 and 12. Left ventricular ejection fractions were serially measured and read at a core lab (Midwest Heart Foundation Echocardiographic Core Laboratory, Lombard, Ill.).
# [4] = tested on: patients with chronic decompensated HF; assay: FUSION I: safety and tolerability of serial outpatient nesiritide infusions; format: in vivo; conditions: for Patients discontinued from the study before week 12 because of an AE, number / Patients discontinued from the study prematurely due to an AE, %: primarily worsening HF
# Procedure: The objective of the FUSION I study was to assess the safety and tolerability of nesiritide when administered in an outpatient setting as serial parenteral infusions to patients with chronic decompensated HF who were at high risk for hospitalization and were receiving established usual therapy for HF. The study compared usual care with usual care plus nesiritide given as 1 of 2 dosing strategies. All patients were evaluated weekly and treated in established HF clinics.
# In this multicenter, open-label, pilot study, patients were randomly assigned to 1 of 3 treatment groups in a 1:1:1 ratio: (1) usual care, as determined by the investigating physician; (2) usual care plus nesiritide 0.005 μg/kg/min given for 4 to 6 hours, preceded by a 1.0-μg/kg bolus; or (3) usual care plus nesiritide 0.01 μg/kg/min given for 4 to 6 hours, preceded by a 2.0-μg/kg bolus (FIG. 1). The study treatment period was 12 weeks with an additional 4 weeks of follow-up. Nesiritide (Natrecor®) was supplied by Scios Inc., Fremont, Calif. Informed consent was obtained from each patient prior to enrollment, and the Ethics Committee of each institution prospectively approved the study.
# All patients, regardless of treatment assignment, were required to have weekly clinic visits in an established HF clinic. If the patient had been randomized to nesiritide, half of the protocol-specified nesiritide dose was administered on the first weekly visit to assess safety. The 0.005 μg/kg/min nesiritide group received a 0.5 μg/kg bolus followed by a 0.0025 μg/kg/min infusion; and the 0.01 μg/kg/min nesiritide group received a 1.0 μg/kg bolus followed by a 0.005 μg/kg/min infusion. At subsequent visits (starting with week 2), the dose was increased to the protocol-specified dose for that group.
# Nesiritide was administered as an IV bolus immediately followed by a fixed-rate infusion for 4 to 6 hours, based on the investigators' discretion, for 12 consecutive weeks. Before each infusion, the investigator assessed the patient's hydration status and HF symptoms as per the protocol. The investigator could choose the infusion frequency from once every other week to twice weekly based on hydration status and HF symptoms.
# The primary goal of this open-label study was to assess the safety and tolerability of different nesiritide doses administered as serial outpatient infusions. Safety and tolerability were measured through investigator reporting of adverse events (AEs), serious AEs, discontinuations of study infusions, laboratory assessments, and vital signs. An AE was defined as any new onset or worsening of any medical condition since study entry. A serious AE were those AEs, which lead to death, hospitalization, or prolonged hospitalization. The effect of nesiritide infusions on renal function was also monitored as a safety variable, with renal AEs defined as increased blood urea nitrogen (BUN) or serum creatinine levels (determined by investigator's discretion), onset of oliguria, or occurrence of acute renal failure. Clinical events were followed to further evaluate safety and tolerability.
# [5] = tested on: symptoms of acute decompensated HF; conditions: VMAC trial; cited from earlier work
# [6] = all patients who received nesiritide
# [7] = 0.005 μg/kg/min, n = 72, 819 infusions
# [8] = 0.01 μg/kg/min, n = 69, 826 infusions
# [9] = all nesiritide patients, n = 141
# [10] = all nesiritide patients, n = 141, 1645 infusions
substance,measurement,setting,value
Nesiritide: a recombinant form of human B-type natriuretic peptide (BNP),Mean change (±standard deviation) in post-infusion concentration of endothelin-1,[1]; 0.005-μg/kg/min,-0.2 ± 1.5 pg/mL
same,Mean change (±standard deviation) in post-infusion concentration of endothelin-1,"[1]; 0.01-μg/kg/min, p=0.04 compared to baseline",-0.6 ± 2.0 pg/mL
same,Post-infusion levels of endothelin-1 versus baseline,"[1]; after the week 12 infusion, all-nesiritide group, p=0.008 (FIG. 2B)",significant change from baseline
same,"Patients receiving IV inotropic agents during study visits through week 12, number","[2]; 0.005 μg/kg/min, n = 72",0
same,"Patients receiving IV inotropic agents during study visits through week 12, %","[2]; 0.01 μg/kg/min, n = 69",3%
same,"Patients receiving IV inotropic agents during study visits through week 12, number","[2]; 0.01 μg/kg/min, n = 69",2
same,"Patients who also received an inotropic agent during a study visit because of decompensated HF, %",[2]; [6],< 2%
same,"Patients who also received an inotropic agent during a study visit because of decompensated HF, number",[2]; [6],2
same,Post-infusion levels of aldosterone versus baseline,"[3]; after the week 12 infusion, 0.01-μg/kg/min and all-nesiritide group, p<0.02 (FIG. 2A)",significant changes from baseline
same,Mean pre-infusion aldosterone values over time,[3]; any treatment group,no significant changes
same,Mean change from baseline (±standard deviation) in post-infusion aldosterone,"[3]; week 1, 0.005-μg/kg/min",-5.0 ± 14.8 pg/mL
same,Mean change from baseline (±standard deviation) in post-infusion aldosterone,"[3]; week 1, 0.01-μg/kg/min, p=0.02 compared to baseline",-10.9 ± 22.8 pg/mL
same,Mean post-infusion values of aldosterone versus baseline,"[3]; weeks 1 and 12, both nesiritide groups",significant declines
same,"Patients with infusion stopped due to adverse event, %","[4]; 0.005 μg/kg/min, n = 72",6%
same,"Patients with infusion stopped due to adverse event, number","[4]; 0.005 μg/kg/min, n = 72",4
same,"Infusion completed, % of infusions",[4]; [7],99%
same,"Infusion completed, number of infusions",[4]; [7],814
same,"Infusions stopped due to adverse event, %",[4]; [7],< 1%
same,"Infusions stopped due to adverse event, number",[4]; [7],4
same,"Patients discontinued from the study before week 12 because of an AE, number",[4]; 0.005 μg/kg/min,7
same,"Patients discontinued from the study prematurely due to an AE, %",[4]; 0.005 μg/kg/min,10%
same,"Patients with infusion stopped due to adverse event, %","[4]; 0.01 μg/kg/min, n = 69",7%
same,"Patients with infusion stopped due to adverse event, number","[4]; 0.01 μg/kg/min, n = 69",5
same,"Infusion completed, % of infusions",[4]; [8],99%
same,"Infusion completed, number of infusions",[4]; [8],814
same,"Infusions stopped due to adverse event, %",[4]; [8],< 1%
same,"Infusions stopped due to adverse event, number",[4]; [8],7
same,"Patients discontinued from the study before week 12 because of an AE, number",[4]; 0.01 μg/kg/min,2
same,"Patients discontinued from the study prematurely due to an AE, %",[4]; 0.01 μg/kg/min,3%
same,Deaths considered related to study medication,[4]; 12-week treatment period,in no case
same,Adverse cardiovascular or renal events compared with usual care,[4]; RAS≧4 cohort,not associated with an increase; also recorded: tended to have a lower incidence
same,"Patients with infusion stopped due to adverse event, %",[4]; [9],6%
same,"Patients with infusion stopped due to adverse event, number",[4]; [9],9
same,"Infusion completed, % of infusions",[4]; [10],99%
same,"Infusion completed, number of infusions",[4]; [10],1628
same,"Infusions stopped due to adverse event, %",[4]; [10],< 1%
same,"Infusions stopped due to adverse event, number",[4]; [10],11
same,"Infusion completed, number of infusions","[4]; all nesiritide patients, n = 141, 1645 infusions, listed as nesiritide","1,628"
same,Safety and tolerability of serial outpatient infusions,"[4]; both doses, 12 weeks, outpatient setting",similarly well tolerated; also recorded: safe and well tolerated
same,Frequency of observed AEs compared with usual-care group,"[4]; either nesiritide group, through 12 weeks, all patients",no increase
same,"Cardiovascular AEs, including symptomatic hypotension, and renal AEs compared to usual-care group","[4]; nesiritide groups, all patients",not increased
same,Resolution of the symptoms of acute decompensated HF versus IV diuretics or nitroglycerin,[5],more rapid resolution
